From paper PMC3973953 come the findings set out here.

Substrate in the data set: O=[N+]([O-])c1ccc(O[C@@H]2O[C@H](CO)[C@H](O)[C@H](O)[C@H]2O)cc1
The data set can be described thus: purified protein. The settings on record: McIlvaine buffer at optimal pH, 37 °C.

B1: A. nidulans rlacA (Aspergillus nidulans FGSC A4) (protein)
chain: VALTHKLNGFTITEHPDAEKRELLQKYVTWDDKSLFINGERIMIFGAEIHPWRLPVPSLWRDILQKVKALGFNCVSFYVDWALLEGKPGEYRAEGSFAWEPFFDAASDLGIYLIARPGPYINAEASGGGFPGWLQRLNGTIRSSDQSYLDATENYVSHIGGLIAKYQITNGGPVILYQPDNEYSGGCCGQEFPNPDYFQYVIDQARRAGIVVPTISNDAWPGGHNAPGTGKGEVDIYGHDNYPLGFDCANPDVWPEGNLPTDYRDLHLEISPSTPYALVEYQVGAFDPWGGPGFEQCAALTGYEFERVFHKNTFSFGVGILSLYMTFGGTNWGNLGHPGGYTSYDYGSPIKETREITREKYSELKLLGNFIKSSPGYLLATPGKLTNTTYTNTADLTVTPLLGNGTGSFFVLRHSDYSSQASTPYKLRLPTSAGQLTIPQLGGSLVLNGRDSKVHLVDYDVAGTKILYSTAEVFTWKKFHDGKVLVLYGGPGEHHELAVSSKAKVKVVEGLGSGISSKQIRGAVVVAWDVEPARRIVQIGDLKIFLLDRNSAYNYWVPQLGTETSIPYATEKAVAASVIVKAGYLVRTAYVKGRDLHLTADFNATTPVEVIGAPKTAENLFINGKKAHHTVDKNGIWSTEVGYSPPKIVLPVLEDLKWKSIDTLPEIQPSYDDSPWPDANLPTKNTIYPLRTPTSLYASDYGFHTGYLLFRGHFTANGRESNFSIQTQGGQAFGSSVWLSGTYLGSWTGDNDYQDYNATYTLPSLKAGKEYVFTVVVDNMGLNENWIVGQDEMKKPRGILNYELSGHEASDITWKLTGNFGGEDYVDKVRGPLNEGGLYAERHGYHQPYPPTKSKDWKSSTPLTGLSKPGISFYTASFDLDIKSGWDVPIYFEFGNSTTPAPAYRVQLYVNGWQYGKYVNNIGPQTRFPVPEGILNYKGTNWVAVTLWALEGSGAKLDSFKLVHGIPVRTALDVEGVELPRYQSRKGVY
A word on the Km: it is the concentration of substrate that gives half-maximal velocity. As usually defined, the kcat is the number of substrate molecules converted per active site and unit of time at saturation. Usually kcat/Km stands for the turnover number divided by the Michaelis constant. Consider B1, for which the Km amounted to 1850 ± 210 µM, the kcat amounted to 63.4 ± 0.9 s⁻¹ and the kcat/Km was 34100 ± 1500 M⁻¹ s⁻¹.

B2: A. oryzae β-galactosidase (Aspergillus oryzae RIB40) (protein)
chain: ASIKHRLNGFTILEHPDPAKRDLLQDIVTWDDKSLFINGERIMLFSGEVHPFRLPVPSLWLDIFHKIRALGFNCVSFYIDWALLEGKPGDYRAEGIFALEPFFDAAKEAGIYLIARPGSYINAEVSGGGFPGWLQRVNGTLRSSDEPFLKATDNYIANAAAAVAKAQITNGGPVILYQPENEYSGGCCGVKYPDADYMQYVMDQARKADIVVPFISNDASPSGHNAPGSGTGAVDIYGHDSYPLGFDCANPSVWPEGKLPDNFRTLHLEQSPSTPYSLLEFQAGAFDPWGGPGFEKCYALVNHEFSRVFYRNDLSFGVSTFNLYMTFGGTNWGNLGHPGGYTSYDYGSPITETRNVTREKYSDIKLLANFVKASPSYLTATPRNLTTGVYTDTSDLAVTPLIGDSPGSFFVVRHTDYSSQESTSYKLKLPTSAGNLTIPQLEGTLSLNGRDSKIHVVDYNVSGTNIIYSTAEVFTWKKFDGNKVLVLYGGPKEHHELAIASKSNVTIIEGSDSGIVSTRKGSSVIIGWDVSSTRRIVQVGDLRVFLLDRNSAYNYWVPELPTEGTSPGFSTSKTTASSIIVKAGYLLRGAHLDGADLHLTADFNATTPIEVIGAPTGAKNLFVNGEKASHTVDKNGIWSSEVKYAAPEIKLPGLKDLDWKYLDTLPEIKSSYDDSAWVSADLPKTKNTHRPLDTPTSLYSSDYGFHTGYLIYRGHFVANGKESEFFIRTQGGSAFGSSVWLNETYLGSWTGADYAMDGNSTYKLSQLESGKNYVITVVIDNLGLDENWTVGEETMKNPRGILSYKLSGQDASAITWKLTGNLGGEDYQDKVRGPLNEGGLYAERQGFHQPQPPSESWESGSPLEGLSKPGIGFYTAQFDLDLPKGWDVPLYFNFGNNTQAARAQLYVNGYQYGKFTGNVGPQTSFPVPEGILNYRGTNYVALSLWALESDGAKLGSFELSYTTPVLTGYGNVESPEQPKYEQRKGAY
As for B2, the Km was 3020 ± 610 µM, the kcat was 46.4 ± 1.2 s⁻¹ and the kcat/Km amounted to 14600 ± 600 M⁻¹ s⁻¹.
